Drawing on paper PMC7905068, “Bornyl Diphosphate Synthase From Cinnamomum burmanni and Its Application for (+)-Borneol Biosynthesis in Yeast” (Frontiers in Bioengineering and Biotechnology, 2021), this text covers Km and kcat for one protein.

For orientation: Km means the concentration of substrate that gives half-maximal velocity.

Substrate in this data set: CC(C)=CCC/C(C)=C/COP(=O)(O)OP(=O)(O)O
The data set is described as follows: GC-MS of products after CIAP dephosphorylation, Michaelis-Menten fit. Type of data set: biochemical, Cinnamomum burmanni. The settings on record: 50 mM HEPES pH 7.2, 10 mM MgCl2, 5 mM DTT, 30 °C, 3 min, 0.125-150 μM GPP.

B1: CbTPS1 (Cinnamomum burmanni) (protein)
chain: MALQMTVPFLSSFLPNPRHRPTAHGFIPQERVSKHISCSTTTPTYSTTVPRRSGNYKPSIWDYDFVQSLVSDYKVEAHGTRVEKLKEVVKNLLKETDSSLAQMELIDSLHRLGVRWLFENEIKQVLYTVSSDNTSIEMKKDLHAVSTRFRLLRQHGFKVSTDVFNDFEDEKGCFKPSLSMDIKGMLSLYEASHLAFQGETILDEARAFTHAHLMGIKENIDPIIHKKVEHALDMPLHWRLEKLEARWYMDMYMREEGMNSSLLELAMLHFNIVQATFQTNLKSLSRWWKDLGLGEQLSFSRDRLVECFFWAAAMTSEPQFGRCQEAVAKVVQLTTTIDDIYDVYGTVDELELFTNAVDRWDLEAMEQLPEYMKTCFLALYNSINEIGYGILKEQGRNVIPYLRNAWTELCKAYLVEAKWYSSGYTPMLEEFLQTSWISVGSLPMQTYAFALLGQNLAPESCDFAEQISDILPLAGMLIRFPDDLGTSLDELKRGDVPKSIQCYMHEAGVTEDVARDHIMGLFRETWKKLNEYLVESSIPHAFIDQAMNLGRVSYCTYKHGDGFSDGFGDPGSQEKKMYMSLFVEPIQVDEAKGISFCVDGGYA
In the case of B1, the Km was found to be 5.11 ± 1.70 µM and the kcat is 0.01 s^–1.
